Data taken from paper PMC10493288, “Identification and characterization of a novel chromosomal aminoglycoside 3’-O-phosphotransferase, APH(3′)-Id, from Kluyvera intermedia DW18 isolated from the sewage of an animal farm” (Frontiers in Microbiology, 2023).

Key:
Assay in all cases: purified protein
Format in all cases: biochemical, Kluyvera intermedia
Details in all cases: 1 mM ATP, 1 mM MgCl2, 2 mM KCl, 100 mM HEPES pH 7.5
[1] = test system: NC[C@@H]1O[C@H](O[C@H]2[C@@H](O)[C@H](O[C@@H]3[C@@H](O)[C@H](N)C[C@H](N)[C@H]3O[C@H]3O[C@H](CO)[C@@H](O)[C@H](O)[C@H]3N)O[C@@H]2CO)[C@H](N)[C@@H](O)[C@@H]1O
[2] = test system: NC[C@H]1O[C@H](O[C@H]2[C@H](O[C@@H]3O[C@H](CO)[C@@H](O)[C@H]3O)[C@@H](O)[C@H](N)C[C@@H]2N)[C@H](N)[C@@H](O)[C@@H]1O
[3] = test system: NC[C@H]1O[C@H](O[C@H]2[C@H](O)[C@@H](O[C@H]3O[C@H](CO)[C@@H](O)[C@H](N)[C@H]3O)[C@H](N)C[C@@H]2N)[C@H](O)[C@@H](O)[C@@H]1O

APH(3′)-Id (Kluyvera intermedia)
Km [1]: 12.19 ± 1.56 µM
kcat [1]: 2.64 ± 0.072 s⁻¹
kcat/Km [1]: 218000 ± 21000 M⁻¹ s⁻¹
Km [2]: 3.831 ± 1.57 µM
kcat [2]: 1.73 ± 0.023 s⁻¹
kcat/Km [2]: 496000 ± 163000 M⁻¹ s⁻¹
Km [3]: 10.04 ± 2.95 µM
kcat [3]: 1.06 ± 0.114 s⁻¹
kcat/Km [3]: 110000 ± 18000 M⁻¹ s⁻¹
